Measurements as given in patent publication US20250109212A1 (BIOSION, published 2025).

T1: cynomolgus CD40-his protein (Biosion in house made) (cynomolgus, UniProt P25942 21-191 (human entry), limits assumed)
T1 construct: also called Cyno CD40-his
T1 chain: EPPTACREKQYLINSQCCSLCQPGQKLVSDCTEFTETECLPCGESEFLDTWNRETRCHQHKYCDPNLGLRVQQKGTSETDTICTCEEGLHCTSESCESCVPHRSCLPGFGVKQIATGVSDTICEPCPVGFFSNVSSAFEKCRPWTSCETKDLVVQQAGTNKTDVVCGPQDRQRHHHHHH


What was measured:
[1] = target: human CD40-Fc protein (prepared in-house) (human); assay: competitive ELISA: human CD40-Fc coated, blocked ligand biotin-labeled human CD40L-his, OD(450-630)
Protocol: (§1) The ability of the recombinant fusion proteins of the disclosure to block CD40-CD40L binding was measured in a competitive ELISA assay. Briefly, 100 μl/well human CD40-Fc proteins (prepared in-house with amino acid sequence of SEQ ID NO: 22) were coated on 96-well micro plates at 2 μg/mL in coating buffer (carbonate/bicarbonate buffer) and incubated overnight at 4° C. The next day, the plates were washed once with wash buffer (PBS+0.05% v/v Tween-20, PBST), and then blocked with 5% w/v non-fatty milk in PBST for 2 hours at 37° C. The plates were then washed 4 times using the wash buffer.
Serially diluted recombinant fusion proteins of the disclosure or controls (starting at 10 µg/mL with a 5-fold serial dilution) in PBST with 2.5% w/v non-fatty milk were added to the CD40-Fc bound plates, 100 μl per well, and incubated at 37° C. for 40 minutes. The plates were washed 4 times using wash buffer, and then added and incubated for 40 minutes at 37° C. with 100 μl/well 95 ng/mL biotin-labeled human CD40L-his protein (Cat #: 10239-H08E, Sino biological). The plates were washed again using wash buffer, added with 100 μl/well streptavidin conjugated HRP (1:10000 dilution in PBST buffer, Cat #: 016-030-084, Jackson ImmunoResearch) and incubated for 40 minutes at 37° C. The plates were washed again using wash buffer. […] The absorbance was read on a microplate reader using the dual wavelength mode with 450 nm for TMB and 630 nm as the reference wavelength, then the OD (450-630) values were plotted against the recombinant fusion protein or controls concentration. Data was analyzed using Graphpad Prism and IC₅₀ values were reported.

[2] = target: T2, recombinant human CD40-his protein (Cat #: CD0-H5228, Acro biosystems) (human, UniProt P25942 21-193); assay: SPR (Biacore T200), sample on Protein A chip, antigen-his analyte, 1:1 fit
T2 construct: Bought protein
From the text: (§2) The purified recombinant fusion proteins were characterized for their binding affinity and binding kinetics by Biacore T200 system (GE healthcare, Pittsburgh, PA, USA). The anti-CD40 antibody HuCD40-C1H1-V2 (having the heavy chain and the light chain of SEQ ID NOs: 19 and 20), Selicrelumab (an agonistic anti-CD40 antibody, Roche Inc., prepared in-house with heavy and light chains of SEQ ID NOs: 27 and 28), and SIRPα-Fc fusion proteins, including SIRPαV2D1M1-Fc (IgG2) (SEQ ID NO: 21, X1=I, X2=R, X3=T, X4=K, X5=F), SIRPαV2D1M2-Fc (IgG2) (SEQ ID NO: 21, X1=I, X2=R, X3=T, X4=R, X5=V), SIRPα-isoform2-Fc (SEQ ID NO: 25) were used as positive controls.
(§3) A Protein A chip (Cat #: 29-1275-56, GE healthcare) was used for affinity determination. The recombinant fusion proteins of the disclosure and the positive controls each at the concentration of 2 μg/ml were respectively flowed onto the chip at a flow rate of 10 μl/min. Then, serially diluted recombinant human CD40-his proteins (Cat #: CD0-H5228, Acro biosystems), human CD47-his proteins (Cat #: CD7-H5227, Acro biosystems), cynomolgus CD40-his proteins (Biosion in house made, SEQ ID NO: 29) or cynomolgus CD47-his proteins (Cat #: CD7-C52H1, Acro biosystems), 2-fold dilution in HBS-EP⁺ buffer (provided by Biacore) with a starting concentration of 200 nM, were flowed onto the chip at a flow rate of 30 μl/min. The association kinetics was followed for 2 minutes and the dissociation kinetics was followed for 10 minutes. The association and dissociation curves were fit to a 1:1 Langmuir binding model using the Biacore evaluation software.

[3] = target: T3, full length human CD40 (uniprot #P25942-1) on 293T-CD40 cells (human, UniProt P25942 21-277); assay: FACS on 293T-CD40 cells, detection with goat anti-human IgG (Fab)-PE, MFI
T3 construct: whole, on cells
Protocol: Following an incubation of 40 minutes at 4° C. in dark, cells were washed three times and resuspended in FACS buffer. Fluorescence was measured using a Becton Dickinson FACS Canto II-HTS equipment and plotted against the recombinant fusion protein or controls concentration. Data was analyzed using Graphpad Prism and EC₅₀ values were reported.

[4] = target: T4, biotin-labeled human CD47-Fc (Biosion in house made) (human, biotin-labeled (sites not given)); assay: competitive ELISA: binder premixed with biotin-labeled human CD47-Fc, blocked partner coated human CD172a-Fc, OD(450-630)
T4 construct: also called Human CD47-Fc protein
Protocol: as §1, with “CD47-CD172a” for “CD40-CD40L”, “CD172a-Fc” for “CD40-Fc”, “24)” for “22)”, “using” for “using the”
Serially diluted recombinant fusion proteins of the disclosure or controls (starting at 100 nM with a 5-fold serial dilution) were mixed with 20 ng/ml biotin-labeled human CD47-Fc (Biosion in house made, SEQ ID NO: 23) in PBST with 2.5% w/v non-fatty milk. The mixtures were incubated at 37° C. for 40 minutes, and respectively added to the CD172a-Fc bound plates, 100 μl per well. The plates were incubated at 37° C. for 40 minutes, washed 4 times using wash buffer, added with 100 μl/well streptavidin conjugated HRP (1:10000 dilution in PBST buffer, Cat #: 016-030-084, Jackson ImmunoResearch), incubated for 40 minutes at 37° C., and washed again using wash buffer. […] The plates were read on a microplate reader using the dual wavelength mode with 450 nm for TMB and 630 nm as the reference wavelength, and the OD (450-630) values were plotted against the recombinant fusion protein or controls concentration. Data was analyzed using Graphpad Prism and IC₅₀ values were reported. Wild-type SIRPαV2D1-Fc (IgG2) (SEQ ID NO: 21, X1=V, X2=K, X3=S, X4=K, X5=F) was used as a positive control.

[5] = target: T5, human CD47-his protein (Cat #: CD7-H5227, Acro biosystems) (human, UniProt Q08722 19-139); assay: SPR (Biacore T200), sample on Protein A chip, antigen-his analyte, 1:1 fit
T5 construct: Bought protein
From the text: as §2, §3

[6] = target: T6, cynomolgus CD47-his protein (Cat #: CD7-C52H1, Acro biosystems) (cynomolgus, UniProt A0A2K5X523 19-139); assay: as above
T6 construct: Bought protein; also called Cyno CD47-his
From the text: as §2, §3

[7] = target: T1, cynomolgus CD40-his protein (Biosion in …); assay: as above
From the text: as §2, §3

IC50 [1] [nM] | Kd [2] [nM] | koff [2] [s⁻¹] | kon [2] [M⁻¹ s⁻¹] | EC50 [3] [nM] | IC50 [4] [nM] | Kd [5] [nM] | koff [5] [s⁻¹] | kon [5] [M⁻¹ s⁻¹] | Kd [6] [nM] | koff [6] [s⁻¹] | kon [6] [M⁻¹ s⁻¹] | Kd [7] [nM] | koff [7] [s⁻¹] | kon [7] [M⁻¹ s⁻¹] | Binder
~2.21 | 0.771 | 0.00188 | 2.44e+06 | 1.45 | – | – | – | – | – | – | – | – | – | – | BSI038×S-001 (bispecific antibody, human IgG2, kappa, Wild-type SIRPαV2D1 linked to C-terminus of each heavy chain of HuCD40-C1H1-V2 (human IgG2)) heavy: not shown light: EIVLTQSPATLSLSPGERATLSCRASQTINNNLHWYQQKPGQAPRLLIKYASQSISGIPARFSGSGSGTDFTLTISSLEPEDFAVYFCQQFSSWPLTFGGGTKVEIKRTVAAPSVFIFPPSDEQLKSGTASVVCLLNNFYPREAKVQWKVDNALQSGNSQESVTEQDSKDSTYSLSSTLTLSKADYEKHKVYACEVTHQGLSSPVTKSFNRGEC
– | – | – | – | – | 8.87 | 0.952 | 0.000401 | 421000 | 4.88 | 0.000371 | 76000 | – | – | – | SIRPαV2D1M1-Fc (IgG2) (Fc fusion, also called SIRPαV2M1-Fc(IgG2)) EEELQVIQPDKSVSVAAGESAILHCTITSLIPVGPIQWFRGAGPARELIYNQREGHFPRVTTVSETTKRENMDFSISISNITPADAGTYYCVKFRKGSPDTEFKSGAGTELSVRAKPSAPVVSGPAARATPGGGGSGGGGSERKCCVECPPCPAPPVAGPSVFLFPPKPKDTLMISRTPEVTCVVVDVSHEDPEVQFNWYVDGVEVHNAKTKPREEQFNSTFRVVSVLTVVHQDWLNGKEYKCKVSNKGLPAPIEKTISKTKGQPREPQVYTLPPSREEMTKNQVSLTCLVKGFYPSDIAVEWESNGQPENNYKTTPPMLDSDGSFFLYSKLTVDKSRWQQGNVFSCSVMHEALHNHYTQKSLSLSPGK
– | – | – | – | – | 11.8 | 1.07 | 0.000417 | 388000 | 7.01 | 0.000438 | 62400 | – | – | – | SIRPαV2D1M2-Fc (IgG2) (Fc fusion, also called SIRPαV2M2-Fc(IgG2)) EEELQVIQPDKSVSVAAGESAILHCTITSLIPVGPIQWFRGAGPARELIYNQREGHFPRVTTVSETTRRENMDFSISISNITPADAGTYYCVKFRKGSPDTEVKSGAGTELSVRAKPSAPVVSGPAARATPGGGGSGGGGSERKCCVECPPCPAPPVAGPSVFLFPPKPKDTLMISRTPEVTCVVVDVSHEDPEVQFNWYVDGVEVHNAKTKPREEQFNSTFRVVSVLTVVHQDWLNGKEYKCKVSNKGLPAPIEKTISKTKGQPREPQVYTLPPSREEMTKNQVSLTCLVKGFYPSDIAVEWESNGQPENNYKTTPPMLDSDGSFFLYSKLTVDKSRWQQGNVFSCSVMHEALHNHYTQKSLSLSPGK
3.33 | 6.41 | 0.00231 | 360000 | 2.28 | – | – | – | – | – | – | – | 16.8 | 0.00219 | 131000 | Selicrelumab (antibody, human IgG2, kappa, V domains shown, Agonistic anti-CD40 antibody, prepared in-house) VH: not shown VL: DIQMTQSPSSVSASVGDRVTITCRASQGIYSWLAWYQQKPGKAPNLLIYTASTLQSGVPSRFSGSGSGTDFTLTISSLQPEDFATYYCQQANIFPLTFGGGTKVEIKR
2.93 | 0.71 | 0.00183 | 2.57e+06 | 1.54 | – | – | – | – | – | – | – | – | – | – | BSI038×S-003 (bispecific antibody, human IgG2, kappa, Wild-type SIRPαV2D1 linked to C-terminus of each light chain of HuCD40-C1H1-V2 (human IgG2)) heavy: EVQLVESGGGLVKPGGSLRLSCAASGFTFSNYGISWVRQAPGKGLEWVSSISSGGDNTYYPDNVKGRFTISRDNAKNSLYLQMNSLRAEDTAVYYCARAGEKAMDYWGQGTLVTVSSASTKGPSVFPLAPCSRSTSESTAALGCLVKDYFPEPVTVSWNSGALTSGVHTFPAVLQSSGLYSLSSVVTVPSSNFGTQTYTCNVDHKPSNTKVDKTVERKCCVECPPCPAPPVAGPSVFLFPPKPKDTLMISRTPEVTCVVVDVSHEDPEVQFNWYVDGVEVHNAKTKPREEQFNSTFRVVSVLTVVHQDWLNGKEYKCKVSNKGLPAPIEKTISKTKGQPREPQVYTLPPSREEMTKNQVSLTCLVKGFYPSDIAVEWESNGQPENNYKTTPPMLDSDGSFFLYSKLTVDKSRWQQGNVFSCSVMHEALHNHYTQKSLSLSPGK light: not shown
